The values below come from article PMC2759774 (Molecular microbiology, 2009).

In assay [1] the target is T1, MinC^C/MinD complex (MalE-MinC^C with MinD on phospholipid vesicles) (E. coli, UniProt P18196 116-231; P0AEZ3 1-270).
T1 sequence (looked up) 1: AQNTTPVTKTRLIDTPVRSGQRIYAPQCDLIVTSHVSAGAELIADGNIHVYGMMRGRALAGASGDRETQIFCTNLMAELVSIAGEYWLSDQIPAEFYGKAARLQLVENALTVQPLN
T1 sequence (looked up) 2: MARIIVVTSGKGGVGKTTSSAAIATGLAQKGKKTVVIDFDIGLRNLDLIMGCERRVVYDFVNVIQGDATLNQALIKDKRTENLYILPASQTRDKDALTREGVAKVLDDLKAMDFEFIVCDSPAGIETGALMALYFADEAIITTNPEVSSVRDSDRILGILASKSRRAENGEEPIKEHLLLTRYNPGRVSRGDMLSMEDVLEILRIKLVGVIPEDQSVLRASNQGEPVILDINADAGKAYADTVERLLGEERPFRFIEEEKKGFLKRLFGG
The assay is described as follows: co-sedimentation.

The target in a further assay is T2, MinD (E. coli, UniProt P0AEZ3 1-270).
T2 sequence (looked up): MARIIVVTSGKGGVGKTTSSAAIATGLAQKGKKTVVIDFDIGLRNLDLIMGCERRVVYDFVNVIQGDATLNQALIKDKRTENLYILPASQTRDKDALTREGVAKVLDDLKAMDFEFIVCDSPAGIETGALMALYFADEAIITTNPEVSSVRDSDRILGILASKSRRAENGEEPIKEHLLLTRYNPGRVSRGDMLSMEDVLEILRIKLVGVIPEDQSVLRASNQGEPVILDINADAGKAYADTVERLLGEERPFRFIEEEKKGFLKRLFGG
Kind of assay: co-sedimentation.

B1: WT FtsZ (natural protein, E. coli, UniProt P0A9A6 1-383, looked up)
chain: MFEPMELTNDAVIKVIGVGGGGGNAVEHMVRERIEGVEFFAVNTDAQALRKTAVGQTIQIGSGITKGLGAGANPEVGRNAADEDRDALRAALEGADMVFIAAGMGGGTGTGAAPVVAEVAKDLGILTVAVVTKPFNFEGKKRMAFAEQGITELSKHVDSLITIPNDKLLKVLGRGISLLDAFGAANDVLKGAVQGIAELITRPGLMNVDFADVRTVMSEMGYAMMGSGVASGEDRAEEAAEMAISSPLLEDIDLSGARGVLVNITAGFDLRLDEFETVGNTIRAFASDNATVVIGTSLDPDMNDELRVTVVATGIGMDKRPEITLVTNKQVQQPVMDRYQQHGMAPLTQEQKPVAKVVNDNAPQTAKEPDYLDIPAFLRKQAD
Take B1: the binding result in assay [1] is listed as “binds”.

B2: MalE-MinC^C (domain or fragment, E. coli, UniProt P18196 116-231, looked up)
chain: AQNTTPVTKTRLIDTPVRSGQRIYAPQCDLIVTSHVSAGAELIADGNIHVYGMMRGRALAGASGDRETQIFCTNLMAELVSIAGEYWLSDQIPAEFYGKAARLQLVENALTVQPLN
With B2, the binding result in the assay with MinD is “binds”.
